Laboratory results taken from article PMC8081927 (The Journal of Biological Chemistry, 2021).
Positions count from the first letter of the chain named. Values joined by “and” are separate entries in the source; they are usually repeats but may differ in a detail not shown here. Equal entries are not always repeated.

Key:
Aβ1-42 fibrils [1] = biological target: T1, Aβ1-42 fibrils (Homo sapiens (species , …, UniProt P05067, biotin on 1% of the peptides in the fibrils for the bead assays; unlabeled fibrils on the blots); experiment: flow cytometry on beads; Aβ fibrils (1% biotinylated, 1 μM) immobilised on streptavidin Dynabeads, blocked with 10% milk; antibody dilutions in PBSB with 1% milk, 3 h, 25 °C; detected with goat anti-human Fc AF647; apparent affinity (EC50); conditions: both partners purified
T1 construct: amyloid beta peptide 1-42 (Aβ1-42), cut product of the amyloid precursor protein; also called Aβ fibrils; Aβ42 fibrils; source: synthetic peptide, bought: Anaspec; assembled into fibrils at 37 °C with 10% fibril seeds, purified by ultracentrifugation

[2] = biological target: T2, Aβ aggregates formed in vivo in 5xFAD transgenic mouse brain (human); experiment: far-Western, overlay or dot blot; immunodot blot: brain extracts (7 μg total protein) of 5xFAD and wild-type mice spotted on nitrocellulose; antibodies at 50 nM in TBST with 1% milk, overnight, 4 °C; conditions: one partner purified
T2 construct: Aβ derived from human amyloid precursor protein (APP) expressed in 5xFAD mice; the APP transgene carries the Swedish (K670N/M671L), Florida (I716V) and London (V717I) mutations; The target stands in a brain homogenate or tissue section, not as a pure peptide; also called 5xFAD samples; Aβ plaques

Aβ1-42 fibrils [3] = biological target: T1, Aβ1-42 fibrils; experiment: far-Western, overlay or dot blot; immunodot blot: disaggregated Aβ and fibrils of Aβ, IAPP and α-synuclein spotted on nitrocellulose; antibodies at 10 nM in PBST with 1% milk, room temperature, 3 h; anti-human Fc HRP, X-ray film, 30 s or 45 min exposure; conditions: both partners purified
disaggregated Aβ1-42 = biological target: T3, disaggregated Aβ1-42 (Homo sapiens (species , …, UniProt P05067)); experiment: as above; conditions: both partners purified
T3 construct: amyloid beta peptide 1-42 (Aβ1-42), cut product of the amyloid precursor protein; also called disaggregated (D) Aβ; disaggregated Aβ42; source: synthetic peptide, bought: Anaspec; dissolved in HFIP, then 50 mM NaOH, ultracentrifuged, neutralised

Aβ2-42 fibrils = biological target: T4, Aβ2-42 fibrils (Homo sapiens (species , …, UniProt P05067)); experiment: far-Western, overlay or dot blot; immunodot blot: fibrils of Aβ1-42 and N-terminal truncations spotted on nitrocellulose at equal Thioflavin T fluorescence; antibodies at 10 nM in PBST with 1% milk; anti-human Fc HRP, 3 min exposure; conditions: both partners purified
T4 construct: amyloid beta peptide with N-terminal deletion, Aβ2-42; Amyloid fibrils; also called fibrils without the first residue; source: synthetic peptide, bought: Bachem; assembled into fibrils, purified by ultracentrifugation

Aβ3-42 fibrils = biological target: T5, Aβ3-42 fibrils (Homo sapiens (species , …, UniProt P05067)); experiment: as above; conditions: both partners purified
T5 construct: amyloid beta peptide with N-terminal deletion, Aβ3-42; Amyloid fibrils; also called fibrils without the first two residues; source: synthetic peptide, bought: Bachem; assembled into fibrils, purified by ultracentrifugation

Aβ4-42 fibrils = biological target: T6, Aβ4-42 fibrils (Homo sapiens (species , …, UniProt P05067)); experiment: as above; conditions: both partners purified
T6 construct: amyloid beta peptide with N-terminal deletion, Aβ4-42; Amyloid fibrils; source: synthetic peptide, bought: Bachem; assembled into fibrils, purified by ultracentrifugation

Aβ5-42 fibrils = biological target: T7, Aβ5-42 fibrils (Homo sapiens (species , …, UniProt P05067)); experiment: as above; conditions: both partners purified
T7 construct: amyloid beta peptide with N-terminal deletion, Aβ5-42; Amyloid fibrils; source: synthetic peptide, bought: Bachem; assembled into fibrils, purified by ultracentrifugation

Aβ11-42 fibrils = biological target: T8, Aβ11-42 fibrils (Homo sapiens (species , …, UniProt P05067)); experiment: as above; conditions: both partners purified
T8 construct: amyloid beta peptide with N-terminal deletion, Aβ11-42; Amyloid fibrils; source: synthetic peptide, bought: Anaspec; assembled into fibrils, purified by ultracentrifugation
T8 chain: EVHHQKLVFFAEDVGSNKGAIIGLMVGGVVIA

B1: AF1 (scFv, V domains shown)
VH: EVQLVESGGGLVQPGGSLRLSCAASGFNIKDTYIHWVRQAPGKGLEWVARIYPTNGYTRYADSVKGRFTISADTSKNTAYLQMNSLRAEDTAVYYCARDGYDGSYFVGYDYNDFYDYWGQGTLVTVSS
VL: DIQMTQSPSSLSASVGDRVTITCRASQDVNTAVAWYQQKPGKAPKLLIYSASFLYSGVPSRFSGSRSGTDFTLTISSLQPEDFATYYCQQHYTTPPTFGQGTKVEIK
notes: scFv-Fc fusion protein; also called lead antibody; parental antibody; source: HEK293-6E expression plasmids, transfected cells, purified from the medium (Protein A)
An EC50 (Aβ1-42 fibrils [1]) of 99 nM was found for B1 in this work.

B2: clone 93 (scFv, V domains shown)
VH: B1 VH with T54S, D62G
VL: DIQMTQSPSSLSASVGDRVTITCRASQNVYNAVTWYQQKPGKAPKLLIYSASFLYSGVPSRFSGSRSGTDFTLTISSLQPEDFATYYCQQHNTYPPTFGQGTKVEIK
notes: scFv-Fc fusion protein; source: HEK293-6E expression plasmids, transfected cells, purified from the medium (Protein A)
B2: binds [2]; binds (Aβ1-42 fibrils [3]); binds (disaggregated Aβ1-42).

B3: crenezumab (variable domains grafted onto an IgG1 scaffold with a human Fc fragment) (antibody, V domains shown)
VH: EVQLVESGGGLVQPGGSLRLSCAASGFTFSSYGMSWVRQAPGKGLELVASINSNGGSTYYPDSVKGRFTISRDNAKNSLYLQMNSLRAEDTAVYYCASGDYWGQGTTVTVSS
VL: DIVMTQSPLSLPVTPGEPASISCRSSQSLVYSNGDTYLHWYLQKPGQSPQLLIYKVSNRFSGVPDRFSGSGSGTDFTLKISRVEAEDVGVYYCSQSTHVPWTFGQGTKVEIK
notes: heavy-chain variable domain of crenezumab; light-chain variable domain of crenezumab; IgG1 here; source: HEK293-6E expression plasmids, transfected cells, purified from the medium (Protein A)
B3: binds (Aβ2-42 fibrils); binds (Aβ3-42 fibrils); binds (Aβ4-42 fibrils). B3: binds (Aβ5-42 fibrils); binds (Aβ11-42 fibrils).

B4: clone 97 (scFv, V domains shown)
VH: B1 VH with T54A, N55S, Y57A
VL: B2 VL with Y30A, N31Y, N92S
notes: scFv-Fc fusion protein; Parent of 97A3; source: HEK293-6E expression plasmids, transfected cells, purified from the medium (Protein A)
With B4 the EC50 (Aβ1-42 fibrils [1]) was 8 nM and 18 nM.
